{"source": "patent US20240327489A1", "key": {"[1]": {"target": "putative Btnl2 receptor on activated CD4+ T cells", "assay": "flow cytometry, Fc-fusion staining of activated mouse CD4+ T cells at 72 hours"}, "[2]": {"target": "putative Btnl2 receptor on activated CD4+ T cells", "assay": "cell-based or functional assay"}}}
{"substance": "mouse Btnl2-Fc (from UniProt O70355 24-454) (Fc fusion)", "values": [{"measurement": "decrease in binding with CD28 co-stimulation (α-CD3/α-CD28 against α-CD3 alone)", "setting": "[1]", "result": 50, "unit": "%"}, {"measurement": "cytokine production of activated CD4+ T cells after 72 hours of culture", "setting": "[2]", "result": "> 40", "unit": "%"}]}
